Data taken from patent publication US20110008345A1 (GlaxoSmithKline, published 2011).

T1: recombinant E. coli-expressed human IL-4 (human, UniProt P05112 25-153)
T1 construct: made and purified at GSK; also called Interleukin-4; rhIL-4
T1 sequence: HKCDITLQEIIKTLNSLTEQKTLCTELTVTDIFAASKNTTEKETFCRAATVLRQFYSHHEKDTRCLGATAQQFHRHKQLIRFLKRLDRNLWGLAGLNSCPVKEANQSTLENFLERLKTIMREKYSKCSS

B1: 586H-147 (bispecific antibody, human IgG1, kappa)
heavy: not shown
light: DIVMTQSPLSLPVTPGEPASISCRSSQNIVHINGNTYLEWYLQKPGQSPRLLIYKISDRFSGVPDRFSGSGSGTDFTLKISRVEADDVGIYYCFQGSHVPWTFGQGTKLEIKRTVAAPSVFIFPPSDEQLKSGTASVVCLLNNFYPREAKVQWKVDNALQSGNSQESVTEQDSKDSTYSLSSTLTLSKADYEKHKVYACEVTHQGLSSPVTKSFNRGEC
B2: 586H-EPKSC-147 (bispecific antibody, human IgG1, kappa)
heavy: not shown
light: DIVMTQSPLSLPVTPGEPASISCRSSQNIVHINGNTYLEWYLQKPGQSPRLLIYKISDRFSGVPDRFSGSGSGTDFTLKISRVEADDVGIYYCFQGSHVPWTFGQGTKLEIKRTVAAPSVFIFPPSDEQLKSGTASVVCLLNNFYPREAKVQWKVDNALQSGNSQESVTEQDSKDSTYSLSSTLTLSKADYEKHKVYACEVTHQGLSSPVTKSFNRGEC
B3: 586H-ASTKG-147 (bispecific antibody, human IgG1, kappa)
heavy: not shown
light: DIVMTQSPLSLPVTPGEPASISCRSSQNIVHINGNTYLEWYLQKPGQSPRLLIYKISDRFSGVPDRFSGSGSGTDFTLKISRVEADDVGIYYCFQGSHVPWTFGQGTKLEIKRTVAAPSVFIFPPSDEQLKSGTASVVCLLNNFYPREAKVQWKVDNALQSGNSQESVTEQDSKDSTYSLSSTLTLSKADYEKHKVYACEVTHQGLSSPVTKSFNRGEC
B4: 586H-ASTKG-154 (bispecific antibody, human IgG1, kappa)
heavy: not shown
light: DIVMTQSPLSLPVTPGEPASISCRSSQNIVHINGNTYLEWYLQKPGQSPRLLIYKISDRFSGVPDRFSGSGSGTDFTLKISRVEADDVGIYYCFQGSHVPWTFGQGTKLEIKRTVAAPSVFIFPPSDEQLKSGTASVVCLLNNFYPREAKVQWKVDNALQSGNSQESVTEQDSKDSTYSLSSTLTLSKADYEKHKVYACEVTHQGLSSPVTKSFNRGEC
B5: 586H-EPKSC-25 (bispecific antibody, human IgG1, kappa)
heavy: not shown
light: DIVMTQSPLSLPVTPGEPASISCRSSQNIVHINGNTYLEWYLQKPGQSPRLLIYKISDRFSGVPDRFSGSGSGTDFTLKISRVEADDVGIYYCFQGSHVPWTFGQGTKLEIKRTVAAPSVFIFPPSDEQLKSGTASVVCLLNNFYPREAKVQWKVDNALQSGNSQESVTEQDSKDSTYSLSSTLTLSKADYEKHKVYACEVTHQGLSSPVTKSFNRGEC
B6: 586H-154 (bispecific antibody, human IgG1, kappa)
heavy: not shown
light: DIVMTQSPLSLPVTPGEPASISCRSSQNIVHINGNTYLEWYLQKPGQSPRLLIYKISDRFSGVPDRFSGSGSGTDFTLKISRVEADDVGIYYCFQGSHVPWTFGQGTKLEIKRTVAAPSVFIFPPSDEQLKSGTASVVCLLNNFYPREAKVQWKVDNALQSGNSQESVTEQDSKDSTYSLSSTLTLSKADYEKHKVYACEVTHQGLSSPVTKSFNRGEC
B7: 586H-ASTKG-25 (bispecific antibody, human IgG1, kappa)
heavy: not shown
light: DIVMTQSPLSLPVTPGEPASISCRSSQNIVHINGNTYLEWYLQKPGQSPRLLIYKISDRFSGVPDRFSGSGSGTDFTLKISRVEADDVGIYYCFQGSHVPWTFGQGTKLEIKRTVAAPSVFIFPPSDEQLKSGTASVVCLLNNFYPREAKVQWKVDNALQSGNSQESVTEQDSKDSTYSLSSTLTLSKADYEKHKVYACEVTHQGLSSPVTKSFNRGEC
B8: 586H-25 (bispecific antibody, human IgG1, kappa)
heavy: not shown
light: DIVMTQSPLSLPVTPGEPASISCRSSQNIVHINGNTYLEWYLQKPGQSPRLLIYKISDRFSGVPDRFSGSGSGTDFTLKISRVEADDVGIYYCFQGSHVPWTFGQGTKLEIKRTVAAPSVFIFPPSDEQLKSGTASVVCLLNNFYPREAKVQWKVDNALQSGNSQESVTEQDSKDSTYSLSSTLTLSKADYEKHKVYACEVTHQGLSSPVTKSFNRGEC

Assays:
[1] = molecular target: T2, recombinant E. coli-expressed human IL-13 (human, UniProt P35225 35-146); assay: SPR
T2 construct: made and purified at GSK; also called Interleukin-13; rhIL-13

[2] = molecular target: T1, recombinant E. coli-expressed human IL-4; assay: SPR

| Kd [1] [nM] | Kd [2] [nM] | koff [2] [s⁻¹] | kon [2] [M⁻¹ s⁻¹] | Binder |
| --- | --- | --- | --- | --- |
| 0.46 | 345 | 0.00118 | 3420 | B1 |
| 0.46 | 26.4 | 0.000671 | 25400 | B2 |
| 0.44 | 18.8 | 0.00069 | 36700 | B3 |
| 0.44 | 8.7 | 0.000284 | 32600 | B4 |
| 0.55 | 29.6 | 0.00142 | 47900 | B5 |
| 0.46 | 285 | 0.00174 | 6100 | B6 |
| 0.54 | 21.8 | 0.0012 | – | B7 |
| 0.39 | 67 | 0.000411 | 6130 | B8 |
